B1: factor inhibiting HIF-1 (FIH-1), full-length [human] / Mint3NT, N-terminal fragment (1–214) of Mint3 [human] (parent)
chain 1: MDFPTISRSPSGPPAMDLEGPRDILVPSEDLTPDSQWDPMPGGPGSLSRMELDESSLQELVQQFEALPGDLVGPSPGGAPCPLHIATGHGLASQEIADAHGLLSAEAGRDDLLGLLHCEECPPSQTGPEEPLEPAPRLLQPPEDPDEDSDSPEWVEGASAEQEGSRSSSSSPEPWLETVPLVTPEEPPAGAQSPETLASYPAPQEVPGPCDHED
chain 2: MAATAAEAVASGSGEPREEAGALGPAWDESQLRSYSFPTRPIPRLSQSDPRAEELIENEEPVVLTDTNLVYPALKWDLEYLQENIGNGDFSVYSASTHKFLYYDEKKMANFQNFKPRSNREEMKFHEFVEKLQDIQQRGGEERLYLQQTLNDTVGRKIVMDFLGFNWNWINKQQGKRGWGQLTSNLLLIGMEGNVTPAHYDEQQNFFAQIKGYKRCILFPPDQFECLYPYPVHHPCDRQSQVDFDNPDYERFPNFQNVVGYETVVGPGDVLYIPMYWWHHIESLLNGGITITVNFWYKGAPTPKRIEYPLKAHQKVAIMRNIEKMLGEALGNPQEVGPLLNTMIKGRYN

In the assay the parent is B1. Description: ITC. To be noted: with Mint3NT, measured three times for each FIH-1 mutant.
For chain 2 E79A, the screen value is -28.5 kcal/mol. Under chain 2 Y71A stands -28.9 kcal/mol. Under chain 2 N171A stands 21.4 kcal/mol; under chain 2 D248A, -28.4 kcal/mol.

Turning to chain 2 K75A, the screen value was 20.2 kcal/mol. Under chain 2 E250A stands 20.1 kcal/mol. On to chain 2 E29A, for which the screen value amounted to 19.5 kcal/mol.
